The text below walks through data of patent US5885797, “Polynucleotide sequences encoding proteins involved in myogenesis” (Fred Hutchinson Cancer Research Center, dated 1999).

The target in assay [1] is T1, Myogenin (full length, mouse) (mouse, UniProt P12979). Nature of the assay: cell-based or functional assay.
Assay [2] has as its target T2, Myf5 (full length, mouse) (mouse, UniProt P24699). Nature of the assay: cell-based or functional assay.
The target in assay [3] is MyoD (full length, mouse) (mouse, UniProt P10085). Nature of the assay: cell-based or functional assay.
A further assay has as its target T3, VP16-I-mfc (mouse).
T3 chain: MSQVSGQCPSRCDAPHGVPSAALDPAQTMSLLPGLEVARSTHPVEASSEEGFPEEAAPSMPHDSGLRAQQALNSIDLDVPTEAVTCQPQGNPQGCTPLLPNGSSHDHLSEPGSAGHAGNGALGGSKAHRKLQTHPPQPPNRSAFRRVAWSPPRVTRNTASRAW
Nature of the assay: yeast hybrid assay, strain L40, β-galactosidase reporter.

The target of another assay is T4, VP16-I-mfb (mouse).
T4 chain: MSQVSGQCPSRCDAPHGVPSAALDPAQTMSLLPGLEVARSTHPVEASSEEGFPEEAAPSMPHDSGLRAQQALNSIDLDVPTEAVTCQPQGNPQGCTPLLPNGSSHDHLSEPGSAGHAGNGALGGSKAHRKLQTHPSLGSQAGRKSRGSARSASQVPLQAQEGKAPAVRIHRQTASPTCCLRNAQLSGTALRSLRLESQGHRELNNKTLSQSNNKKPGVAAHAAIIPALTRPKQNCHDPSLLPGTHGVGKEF
Described as above.

In assay [4] the target is T5, Lethal of Scute (AS-C T3) (Drosophila melanogaster (Fruit fly), UniProt P09774).
T5 sequence: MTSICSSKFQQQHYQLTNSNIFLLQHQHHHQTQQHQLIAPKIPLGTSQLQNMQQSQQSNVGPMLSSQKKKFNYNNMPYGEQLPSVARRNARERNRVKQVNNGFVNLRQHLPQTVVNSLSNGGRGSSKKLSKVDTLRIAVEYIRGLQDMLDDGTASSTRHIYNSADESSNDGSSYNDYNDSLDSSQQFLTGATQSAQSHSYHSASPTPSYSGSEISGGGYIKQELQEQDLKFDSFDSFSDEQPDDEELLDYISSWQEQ
Nature of the assay: yeast one-hybrid, strain L40, β-galactosidase reporter.

The target of assay [5] is T1, Myogenin (full length, mouse). The assay is described as above.
Assay [6] has as its target T5, Lethal of Scute (AS-C T3). The description is as above. This is another data set of the same source.
Assay [7] deals with T2, Myf5 (full length, mouse). Nature of the assay: column 'Interaction with Myf5' of Table 4 (yeast hybrid assay of Table 3).
Assay [8] concerns the target T2, Myf5 (full length, mouse). Description: yeast one-hybrid, strain L40, β-galactosidase reporter.
For assay [9], the target named is T2, Myf5 (full length, mouse). Nature of the assay: yeast hybrid assay, strain L40, β-galactosidase reporter.

B1: I-mfc (other)
chain: T3 chain
Consider B1, for which the “Relative CAT Activity (%), MCK-CAT (NIH3T3 cells)” value (“Relative CAT Activity (%), MCK-CAT” for short) in [1] came out at 111%; in assay [2], 106%; in assay [3] it was 100%. The “Relative CAT Activity (%), 4RCAT (10T/2 cells)” value (“Relative CAT Activity (%), 4RCAT” for short) is 101% in assay [2] and 100% in assay [3].

B2: LexA-I-mfa (1-202) (other)
chain: MSQVSGQCPSRCDAPHGVPSAALDPAQTMSLLPGLEVARSTHPVEASSEEGFPEEAAPSMPHDSGLRAQQALNSIDLDVPTEAVTCQPQGNPQGCTPLLPNGSSHDHLSEPGSAGHAGNGALGGSKAHRKLQTHPSLGSQAGRKSRGSARSASQVPLQAQEDCCVHCILSCLFCEFLTLCNILLDCATCGSCSSEDSCLCCC
On to B2, for which the β-galactosidase activity with VP16-I-mfc and in the assay with VP16-I-mfb was < 0.1 arbitrary units each time.

B3: LexA-I-mfa (87-202) (other)
chain: QPQGNPQGCTPLLPNGSSHDHLSEPGSAGHAGNGALGGSKAHRKLQTHPSLGSQAGRKSRGSARSASQVPLQAQEDCCVHCILSCLFCEFLTLCNILLDCATCGSCSSEDSCLCCC
As to B3, the β-galactosidase activity was < 0.1 arbitrary units with VP16-I-mfc and 0.2 arbitrary units with VP16-I-mfb.

B4: LexA-I-mfa (other)
chain: MKALTARQQEVFDLIRDHISQTGMPPTRAEIAQRLGFRSPNAAEEHLKALARKGVIEIVSGASRGIRLLQEEEEGLPLVGRVAAGEPLLAQQHIEGHYQVDPSLFKPNADFLLRVSGMSMKDIGIMDGDLLAVHKTQDVRNGQVVVARIDDEVTVKRLKKQGNKVELLPENSEFKPIVVDLRQQSFTIEGLAVGVIRNGDWLMSQVSGQCPSRCDAPHGVPSAALDPAQTMSLLPGLEVARSTHPVEASSEEGFPEEAAPSMPHDSGLRAQQALNSIDLDVPTEAVTCQPQGNPQGCTPLLPNGSSHDHLSEPGSAGHAGNGALGGSKAHRKLQTHPSLGSQAGRKSRGSARSASQVPLQAQEDCCVHCILSCLFCEFLTLCNILLDCATCGSCSSEDSCLCCCCCGSGECADCDLPCDLDCGIVDACCESADCLEICMECCGLCFSS
As for B4, the β-galactosidase activity is 0.5 arbitrary units with VP16-I-mfc and 0.7 arbitrary units in the assay with VP16-I-mfb.

B5: LexA-I-mfb (other)
chain: MKALTARQQEVFDLIRDHISQTGMPPTRAEIAQRLGFRSPNAAEEHLKALARKGVIEIVSGASRGIRLLQEEEEGLPLVGRVAAGEPLLAQQHIEGHYQVDPSLFKPNADFLLRVSGMSMKDIGIMDGDLLAVHKTQDVRNGQVVVARIDDEVTVKRLKKQGNKVELLPENSEFKPIVVDLRQQSFTIEGLAVGVIRNGDWLMSQVSGQCPSRCDAPHGVPSAALDPAQTMSLLPGLEVARSTHPVEASSEEGFPEEAAPSMPHDSGLRAQQALNSIDLDVPTEAVTCQPQGNPQGCTPLLPNGSSHDHLSEPGSAGHAGNGALGGSKAHRKLQTHPSLGSQAGRKSRGSARSASQVPLQAQEGKAPAVRIHRQTASPTCCLRNAQLSGTALRSLRLESQGHRELNNKTLSQSNNKKPGVAAHAAIIPALTRPKQNCHDPSLLPGTHGVGKEF
For B5, the β-galactosidase activity in assay [4] is 0.9 arbitrary units; in assay [5] it was 0.4 arbitrary units; with VP16-I-mfc, < 0.1 arbitrary units. For the same molecule, the binding result in [6] is reported as “no binding”.

B6: LexA (other)
chain: MKALTARQQEVFDLIRDHISQTGMPPTRAEIAQRLGFRSPNAAEEHLKALARKGVIEIVSGASRGIRLLQEEEEGLPLVGRVAAGEPLLAQQHIEGHYQVDPSLFKPNADFLLRVSGMSMKDIGIMDGDLLAVHKTQDVRNGQVVVARIDDEVTVKRLKKQGNKVELLPENSEFKPIVVDLRQQSFTIEGLAVGVIRNGDWL
B6: the β-galactosidase activity in assay [5] came to 0.6 arbitrary units.

B7: LexA-I-mfc (other)
chain: MKALTARQQEVFDLIRDHISQTGMPPTRAEIAQRLGFRSPNAAEEHLKALARKGVIEIVSGASRGIRLLQEEEEGLPLVGRVAAGEPLLAQQHIEGHYQVDPSLFKPNADFLLRVSGMSMKDIGIMDGDLLAVHKTQDVRNGQVVVARIDDEVTVKRLKKQGNKVELLPENSEFKPIVVDLRQQSFTIEGLAVGVIRNGDWLMSQVSGQCPSRCDAPHGVPSAALDPAQTMSLLPGLEVARSTHPVEASSEEGFPEEAAPSMPHDSGLRAQQALNSIDLDVPTEAVTCQPQGNPQGCTPLLPNGSSHDHLSEPGSAGHAGNGALGGSKAHRKLQTHPPQPPNRSAFRRVAWSPPRVTRNTASRAW
For B7, the binding result in assay [7] is “no binding”. The β-galactosidase activity in assay [5] was 0.3 arbitrary units; in assay [8] it was 0.4 arbitrary units; with VP16-I-mfb, < 0.1 arbitrary units; in [9] it was < 0.1 arbitrary units.

B8: I-mfb (other)
chain: T4 chain
Consider B8, for which the “Relative CAT Activity (%), MCK-CAT” value in [1] worked out at 101%; in assay [2] it was 132%; in [3] it was 87%. Besides, the “Relative CAT Activity (%), 4RCAT” value amounted to 105% in assay [2] and 95% in assay [3].

B9: LexA-I-mfa (87-246) (other)
chain: QPQGNPQGCTPLLPNGSSHDHLSEPGSAGHAGNGALGGSKAHRKLQTHPSLGSQAGRKSRGSARSASQVPLQAQEDCCVHCILSCLFCEFLTLCNILLDCATCGSCSSEDSCLCCCCCGSGECADCDLPCDLDCGIVDACCESADCLEICMECCGLCFSS
B9 returned a β-galactosidase activity in the assay with VP16-I-mfb of 0.6 arbitrary units.

B10: I-mfa (other)
chain: MSQVSGQCPSRCDAPHGVPSAALDPAQTMSLLPGLEVARSTHPVEASSEEGFPEEAAPSMPHDSGLRAQQALNSIDLDVPTEAVTCQPQGNPQGCTPLLPNGSSHDHLSEPGSAGHAGNGALGGSKAHRKLQTHPSLGSQAGRKSRGSARSASQVPLQAQEDCCVHCILSCLFCEFLTLCNILLDCATCGSCSSEDSCLCCCCCGSGECADCDLPCDLDCGIVDACCESADCLEICMECCGLCFSS
Turning to B10, the “Relative CAT Activity (%), MCK-CAT” value in assay [1] worked out at 2%; in assay [2], 9%; in assay [3], 27%. Further, the results for the “Relative CAT Activity (%), 4RCAT” value in [2] and in assay [3] were 13% and 56%, respectively.

B11: LexA-I-mfa (29-246) (other)
chain: MSLLPGLEVARSTHPVEASSEEGFPEEAAPSMPHDSGLRAQQALNSIDLDVPTEAVTCQPQGNPQGCTPLLPNGSSHDHLSEPGSAGHAGNGALGGSKAHRKLQTHPSLGSQAGRKSRGSARSASQVPLQAQEDCCVHCILSCLFCEFLTLCNILLDCATCGSCSSEDSCLCCCCCGSGECADCDLPCDLDCGIVDACCESADCLEICMECCGLCFSS
As for B11, the β-galactosidase activity was 0.8 arbitrary units in the assay with VP16-I-mfc and 0.7 arbitrary units with VP16-I-mfb.
